Here are results for twelve substances from US20190077883A1.

For experiment [1], the target named is GST-tagged human FcRn (human; Schistosoma japonicum) (UniProt P55899). The experiment can be described thus: ELISA pH 6.0, h9C12 variant captured on AdV5 hexon, GST-hFcRn detected with anti-GST-HRP. A general note: In an ELISA, binding on a coated surface is turned into a signal by an enzyme label.
The target in experiment [2] is Monomeric His-tagged human FcRn (human) (UniProt P55899). Description: SPR Biacore 3000, IgG immobilised, monomeric hFcRn injected, pH 6.0, 1:1 Langmuir.
The target is the same in experiment [3]. Description: SPR Biacore 3000, pH 6.0, KD against IgG1 WT. On the technique in general: Surface plasmon resonance follows binding to a sensor surface in real time, without labels.
Experiment [4] has the same target. Description: SPR Biacore 3000, IgG immobilised, monomeric hFcRn injected, pH 7.4.
Experiment [5] addresses recombinant human FcRn (SPR of Example 2) (human) (UniProt P55899). Description: SPR Biacore T200, pH 6.0, KD against IgG1-WT.
Experiment [6] has the same target. The experiment can be described thus: SPR Biacore T200, IgG immobilised, hFcRn 1000.0-15.6 nM injected, pH 6.0, 25 C, 1:1 Langmuir.

pKd: −log10 of the molar value.

Monomeric His-tagged human FcRn (human), sequence (P55899 24-290 limits assumed, form in doubt): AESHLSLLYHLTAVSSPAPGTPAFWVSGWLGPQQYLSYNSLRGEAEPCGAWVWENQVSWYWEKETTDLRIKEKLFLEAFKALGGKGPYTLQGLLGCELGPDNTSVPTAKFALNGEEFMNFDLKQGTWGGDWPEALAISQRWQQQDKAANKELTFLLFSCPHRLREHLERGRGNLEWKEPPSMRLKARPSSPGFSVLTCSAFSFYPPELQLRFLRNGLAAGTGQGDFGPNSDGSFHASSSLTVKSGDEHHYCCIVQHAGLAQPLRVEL
recombinant human FcRn (SPR of Example 2) (human), sequence (P55899 24-290 limits assumed, form in doubt): as above
GST-tagged human FcRn (human; Schistosoma japonicum), sequence (P55899 24-297, chain 1 of 2): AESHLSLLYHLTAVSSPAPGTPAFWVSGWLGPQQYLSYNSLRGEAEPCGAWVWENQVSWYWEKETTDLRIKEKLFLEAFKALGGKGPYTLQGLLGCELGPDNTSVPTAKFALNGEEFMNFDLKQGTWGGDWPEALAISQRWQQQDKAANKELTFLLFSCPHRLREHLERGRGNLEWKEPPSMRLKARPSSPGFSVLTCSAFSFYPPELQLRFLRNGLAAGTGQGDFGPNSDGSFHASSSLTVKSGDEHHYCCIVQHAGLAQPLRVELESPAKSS
GST-tagged human FcRn (human; Schistosoma japonicum), sequence (P61769 21-119, chain 2 of 2, further chain): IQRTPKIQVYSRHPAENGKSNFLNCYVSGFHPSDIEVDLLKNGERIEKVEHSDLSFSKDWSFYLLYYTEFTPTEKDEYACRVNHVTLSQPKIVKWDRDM

“h9C12 IgG1-L309K/Q311R/N434W/M428E (antibody)” came in with a Fold change from WT (ELISA) pH 6.0 in experiment [1] of 6 fold.
“h9C12 IgG1-L309R/Q311R/N434W/M428E (antibody)” came in with a Fold change from WT (ELISA) pH 6.0 in experiment [1] of 6 fold.
In turn, “h9C12 IgG1-L309S/Q311R/N434W/M428E (antibody)” yielded a Fold change from WT (ELISA) pH 6.0 in experiment [1] of 6 fold.
On the same count and under the same terms, the result for “h9C12 IgG1-M252S/Q311R/N434W/M428E (antibody)” reads 6 fold.
As to h9C12 IgG1-M252Y/S254T/T256E (antibody), in experiment [2], the negative logarithm of the Kd (pKd) (in general, the negative decadic logarithm of the Kd, by convention in mol/L) was 7.03 and the koff (commonly the rate constant with which the complex falls apart) amounted to 0.0078 s⁻¹. The Fold change from WT in experiment [3] was 8.4 fold.
Substance h9C12 IgG1-N434W (antibody) showed a pKd in experiment [4] of 5.70. In experiment [2], the negative logarithm of the Kd (pKd) was 7.83 and the off-rate (koff) was found to be 0.0032 s⁻¹. This substance also showed a Fold change from WT in experiment [3] of 52.9 fold.
In experiment [2], h9C12 IgG1-Q311R (antibody) showed a pKd of 6.16 and a dissociation rate constant (koff) of 0.0572 s⁻¹. In experiment [3], this substance returned a Fold change from WT of 1.1 fold.
On to h9C12 IgG1-Q311R/N434P/M428E (antibody), for which the Fold change from WT (KD) pH 6.0 in experiment [5] worked out at 11.3 fold. For the same substance, in experiment [1], the Fold change from WT (ELISA) pH 6.0 came to 3 fold. For the same substance, in experiment [6], the pKd is 7.62 and the dissociation rate constant (koff) is 0.0405 s⁻¹.
h9C12 IgG1-Q311R/N434W (antibody): in experiment [2], the pKd was 7.65 and the koff was determined as 0.0036 s⁻¹. Also, the Fold change from WT in experiment [3] was found to be 35.1 fold.
In the case of h9C12 IgG1-Q311R/N434W/M428D (antibody), the Fold change from WT (KD) pH 6.0 in experiment [5] is 9.28 fold. Also, the Fold change from WT (ELISA) pH 6.0 in experiment [1] came out at 3 fold. Besides, in experiment [6], the pKd was 7.53 and the koff came out at 0.0312 s⁻¹.
In the case of h9C12 IgG1-Q311R/N434W/M428E (antibody), in experiment [5], the Fold change from WT (KD) pH 6.0 came to 29.3 fold. In addition, in experiment [2], the pKd is 7.41 and the koff came to 0.005 s⁻¹. The same substance displayed a Fold change from WT (ELISA) pH 6.0 in experiment [1] of 6 fold. For the same substance, in experiment [6], the pKd is 8.03 and the dissociation rate constant (koff) is 0.0111 s⁻¹. The same substance had a Fold change from WT in experiment [3] of 20.3 fold.
As for “h9C12 IgG1-Q311R/N434W/M428E/H433K (antibody)”, the Fold change from WT (ELISA) pH 6.0 in experiment [1] turned out to be 9 fold.
